As usually defined, the Kd is a measure of binding affinity in units of concentration. As usually defined, the stoichiometry N is the number of molecules, sites or subunits per partner or assembly.

Starred links: 1 amine or outer side, 2 acyl side, 3 side chain; linkers in the order of their positions; H or OH if unused. Non-standard residues stand in square brackets, D forms with d. No end group written: not given here. Kmea = methacryllysine, C=C(C)C(=O)NCCCC[C@H](N[*:1])C(=O)[*:2]; Kcr = crotonyllysine, C/C=C/C(=O)NCCCC[C@H](N[*:1])C(=O)[*:2]

Experiment [1] has as its target T1, human AF9 YEATS domain (residues 1–138) (Homo sapiens, UniProt P42568).
T1 construct: containing the cloned AF9 YEATS gene (amino acids 1–138) with an N-terminal 6xHis tag; 6xHis (N); made in house; host or cells: E. coli Rosetta 2(DE3)pLysS
T1 sequence (P42568 1-138): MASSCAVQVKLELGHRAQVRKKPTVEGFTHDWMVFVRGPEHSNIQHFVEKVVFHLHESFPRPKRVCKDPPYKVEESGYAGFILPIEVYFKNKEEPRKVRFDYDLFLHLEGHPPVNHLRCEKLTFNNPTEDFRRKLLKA
Put plainly: ITC binding assay with AF9 YEATS domain. To be noted: MicroCal PEAQ-ITC, 50 mM NaH2PO4, 500 mM NaCl, 2 mM EDTA, 2 mM β-ME, H3 peptides 1.1–2.7 mM titrated into AF9 YEATS 94–205 μM, One Set of Sites model, n = 3, errors as standard error (SE).
Procedure: The plasmid was transformed into Rosetta 2(DE3)pLysS E. coli cells (Novagen, Darmstadt, Germany) by the heat-shock method. Transformed cells were cultivated at 37 °C in TB medium supplemented with 50 μg/mL kanamycin and 35 μg/mL chloramphenicol. The cultivation continued until the culture’s OD600 reached 1.5. Then the culture was cooled down to room temperature (RT), and the protein expression was induced by adding isopropyl β-d-1-thiogalactopyranoside (IPTG) at a final concentration of 0.3 mM. The cultivation was continued for 18 h at RT. After the protein expression was completed, the cells were harvested by centrifuging the culture at 6500 rpm at 4 °C for 15 min. The pellets were then resuspended in cell lysis buffer containing 50 mM Tris, 500 mM NaCl, 30 mM imidazole, at pH 7.4, 1 mM phenylmethylsulfonyl fluoride (PMSF), 2 mM β-mercaptaethanol (β-ME), and 20 μg/mL DNase I. Subsequently, the cells were lysed using the One Shot Cell Disrupter (Constant Systems LTD, Daventry, UK), and the cell debris was settled down by centrifuging the lysate at 19500 rpm at 4 °C for 20 min. […]
ITC experiments were performed using a MicroCal PEAQ-ITC instrument (Malvern Panalytical, Malvern, UK). […] The concentrations of all histone peptides and proteins were measured by UV analysis on a Thermo-Fisher Nanodrop spectrophotometer in buffer using λmax at 215 nm and 280 nm, respectively. […]

The target in experiment [2] is T2, recombinant human AF9 YEATS domain (residues 1–138) (human, UniProt P42568 1-138).
T2 construct: AF9 (MLLT3), human, YEATS domain, amino acids 1-138, in pET28b(+); Plasmid was a gift from Prof; No step that removes the tag is described; the final SEC product is called 6xHis AF9 YEATS, so the tag was probably still on in ITC; also called 6xHis-AF9 YEATS; source: E. coli Rosetta 2(DE3)pLysS, purified (HisTrap Ni-NTA, Superdex 75 SEC)
T2 sequence (looked up): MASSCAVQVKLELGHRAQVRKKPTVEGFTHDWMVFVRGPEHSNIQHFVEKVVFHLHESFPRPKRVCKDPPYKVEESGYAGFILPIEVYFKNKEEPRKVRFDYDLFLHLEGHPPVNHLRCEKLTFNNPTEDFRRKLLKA
Briefly: ITC; H3 peptides (1.1–2.7 mM) titrated into AF9 YEATS (94–205 μM), 19 injections; 50 mM NaH2PO4, 500 mM NaCl, 2 mM EDTA, 2 mM β-ME; One Set of Sites model; triplicates. To be noted: both partners purified. (In general: Isothermal titration calorimetry measures the heat released or taken up as one component is titrated into another.)

As to `C/C=C/C(=O)NCCCC[C@H](NC(=O)[C@H](CCCNC(=N)N)NC(=O)[C@H](C)NC(=O)[C@@H](NC(=O)[C@H](CCC(N)=O)NC(=O)[C@H](CCCCN)NC(=O)[C@@H](N)[C@@H](C)O)[C@@H](C)O)C(=O)N[C@@H](CO)C(=O)N[C@H](C(=O)NCC(=O)NCC(=O)N[C@@H](CCCCN)C(=O)N[C@@H](C)C(N)=O)[C@@H](C)O` [H3K9cr], the “N (Stoichiometry)” value in experiment [1] is listed as 0.98 ± 0.01.

B1: histone H3K18mea peptide (residues 10–25) (peptide)
peptide: STGGKAPRKQLATKAA
modifications: methacryllysine (Kmea) at K18
notes: histone H3, residues 10-25; the stretch is the same in H3.1, H3.2 and H3.3; Made on Rink amide resin, so the C-terminus is probably an amide; last residue coupled as N-alpha-Boc amino acid, so the N-terminus is probably free; source: synthetic peptide (Fmoc-SPPS on Rink amide resin, RP-HPLC purified)
Turning to B1, in experiment [2], the Kd is 114 µM.

B2: histone H3K18cr peptide (residues 10–25) (peptide)
peptide: STGGKAPRKQLATKAA
modifications: crotonyllysine (Kcr) at K18
notes: histone H3, residues 10-25; the stretch is the same in H3.1, H3.2 and H3.3; Made on Rink amide resin, so the C-terminus is probably an amide; last residue coupled as N-alpha-Boc amino acid, so the N-terminus is probably free; also called H3K18Kcr; source: synthetic peptide (Fmoc-SPPS on Rink amide resin, RP-HPLC purified)
On to B2, for which the Kd in experiment [2] was determined as 21 µM.

B3: histone H3K9cr peptide (residues 3–15) (peptide)
peptide: TKQTAR[Kcr]STGGKA-NH2
notes: histone H3, residues 3-15; the stretch is the same in H3.1, H3.2 and H3.3; Made on Rink amide resin, so the C-terminus is probably an amide; last residue coupled as N-alpha-Boc amino acid, so the N-terminus is probably free; source: synthetic peptide (Fmoc-SPPS on Rink amide resin, RP-HPLC purified)
B3: in experiment [2], the equilibrium dissociation constant (Kd) stood at 11 µM and the “stoichiometry N” value stood at 0.98.

B4: histone H3K9mea peptide (residues 3–15) (peptide)
peptide: TKQTAR[Kmea]STGGKA-NH2
notes: as for B3
With B4, in experiment [2], the Kd came to 59 µM and the “stoichiometry N” value was 1.02.

The values are drawn from article PMC10138300, “Molecular Recognition of Methacryllysine and Crotonyllysine by the AF9 YEATS Domain” (International Journal of Molecular Sciences, 2023).
